# According to patent US20250297004A1, “NECTIN-4 BINDING AGENTS” (INNATE PHARMA, priority 2022, published 2025):
# Entries after “also recorded” stand apart in the source; their conditions may differ.
# T1: human Nectin-4 Mutant 6 (human, UniProt Q96NY8 32-510)
# T1 construct: Expressed on transfected HEK293T cells; also called H238A/I239T/H241Q
# T1 chain: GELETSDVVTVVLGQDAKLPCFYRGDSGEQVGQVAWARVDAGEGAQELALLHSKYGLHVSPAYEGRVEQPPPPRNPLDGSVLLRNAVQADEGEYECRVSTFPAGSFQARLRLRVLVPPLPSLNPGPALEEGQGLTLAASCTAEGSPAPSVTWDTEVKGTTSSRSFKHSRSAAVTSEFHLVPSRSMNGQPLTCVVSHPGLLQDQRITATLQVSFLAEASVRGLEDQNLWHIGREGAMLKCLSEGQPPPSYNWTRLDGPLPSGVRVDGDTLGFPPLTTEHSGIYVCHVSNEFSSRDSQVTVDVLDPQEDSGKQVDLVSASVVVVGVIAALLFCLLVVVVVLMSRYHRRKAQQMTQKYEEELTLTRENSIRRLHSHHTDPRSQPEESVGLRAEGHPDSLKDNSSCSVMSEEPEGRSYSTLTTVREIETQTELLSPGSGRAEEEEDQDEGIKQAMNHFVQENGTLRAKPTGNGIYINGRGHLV
# T2: human Nectin-4 Mutant 9 (human, UniProt Q96NY8 32-510)
# T2 construct: Expressed on transfected HEK293T cells; also called L150S/S152A/Q234R/I236S
# T2 chain: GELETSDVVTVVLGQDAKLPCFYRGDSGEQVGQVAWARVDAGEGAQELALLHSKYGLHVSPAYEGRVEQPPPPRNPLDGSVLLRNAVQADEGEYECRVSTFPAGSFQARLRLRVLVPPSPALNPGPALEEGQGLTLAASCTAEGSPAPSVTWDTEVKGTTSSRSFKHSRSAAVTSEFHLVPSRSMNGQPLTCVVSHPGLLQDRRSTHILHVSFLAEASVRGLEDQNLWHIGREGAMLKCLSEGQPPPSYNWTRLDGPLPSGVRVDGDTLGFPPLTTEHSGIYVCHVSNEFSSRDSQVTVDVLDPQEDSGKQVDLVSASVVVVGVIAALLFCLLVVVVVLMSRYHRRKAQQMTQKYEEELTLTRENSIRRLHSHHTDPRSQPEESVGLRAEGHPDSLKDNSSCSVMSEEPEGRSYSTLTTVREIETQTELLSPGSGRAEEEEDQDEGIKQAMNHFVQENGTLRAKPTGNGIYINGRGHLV
# T3: human Nectin-4 Mutant 2 (human, UniProt Q96NY8 32-510)
# T3 construct: Expressed on transfected HEK293T cells; also called V90S/P92A/A93S/E95A/G96D
# T3 chain: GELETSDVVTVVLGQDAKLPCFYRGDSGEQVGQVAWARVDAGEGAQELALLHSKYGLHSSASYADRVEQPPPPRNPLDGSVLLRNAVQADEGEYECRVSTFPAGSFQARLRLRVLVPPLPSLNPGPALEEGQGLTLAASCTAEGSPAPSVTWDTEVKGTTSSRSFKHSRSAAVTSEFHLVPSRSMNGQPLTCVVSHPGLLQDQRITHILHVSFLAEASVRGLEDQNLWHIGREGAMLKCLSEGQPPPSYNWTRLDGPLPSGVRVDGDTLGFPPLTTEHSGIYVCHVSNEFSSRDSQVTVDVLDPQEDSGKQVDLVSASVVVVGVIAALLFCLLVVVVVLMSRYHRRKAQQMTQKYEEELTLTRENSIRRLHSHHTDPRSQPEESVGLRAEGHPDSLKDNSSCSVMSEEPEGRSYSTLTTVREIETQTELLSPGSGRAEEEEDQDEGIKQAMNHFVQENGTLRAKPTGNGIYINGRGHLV
# T4: wild-type human Nectin-4 protein (Nectin4-His-BirA) (Homo sapiens, UniProt Q96NY8)
# T4 construct: human Nectin4-His-BirA protein diluted to 5 μg/mL in Kinetic buffer 10× were captured onto the biosensors; BirA (biotinylation acceptor tag) (C)
# T4 sequence (Q96NY8 with tags, fused parts or gaps): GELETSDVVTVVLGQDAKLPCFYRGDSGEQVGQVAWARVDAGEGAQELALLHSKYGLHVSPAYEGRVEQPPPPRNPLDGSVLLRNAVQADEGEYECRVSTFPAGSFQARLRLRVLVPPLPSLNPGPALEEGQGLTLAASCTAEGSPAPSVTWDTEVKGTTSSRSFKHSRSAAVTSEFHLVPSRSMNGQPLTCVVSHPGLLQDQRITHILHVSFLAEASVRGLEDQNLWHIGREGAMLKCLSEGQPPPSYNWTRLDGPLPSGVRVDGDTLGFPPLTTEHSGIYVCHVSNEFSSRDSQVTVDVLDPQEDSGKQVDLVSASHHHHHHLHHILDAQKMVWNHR
# Experiments:
# [1] = tested on: SUM190 cells subcutaneously engrafted in CB17-SCID mice; test: In vivo efficacy of ggfg-Dxd ADCs, Nectin-4 low/SUM190 mouse model of human breast cancer; conditions: single i.v. injection 3 mg/kg, each antibody conjugated to ggfg-Dxd, DAR=8, FIG. 4
# Description: SUM190 cells were subcutaneously engrafted in CB17-SCID immunodeficient mice at a dose of 0.5 million cells in 100 μl of Matrigel with growth factor diluted at ½ in PBS. When tumors reached a volume between 195 and 250 mm3, mice were randomized into groups of 9 mice for intravenous treatment with a single injection of 3 mg/kg of camptothecin ADCs. Tumor growths were followed twice a week. Kaplan Meier survival curves were established by using GraphPad Prism V7 software according to the following criteria: When the tumor volume reached 1500 mm3, mice were euthanized and considered dead on the day of sacrifice (D).
# human Nectin-4 Mutant 6 = target: T1, human Nectin-4 Mutant 6; test: binding to HEK293T cells expressing Nectin-4 mutant
# human Nectin-4 Mutant 9 = target: T2, human Nectin-4 Mutant 9; test: as above
# human Nectin-4 Mutant 2 = target: T3, human Nectin-4 Mutant 2; test: as above
# [2] = target: T4, wild-type human Nectin-4 protein (Nectin4-His-BirA); test: Epitope mapping by competition for binding to Nectin-4 (SPR/OCTET); conditions: listed as antibody = 1st mAb injected; 10 μg/mL each
# Description: Briefly, human Nectin4-His-BirA protein diluted to 5 μg/mL in Kinetic buffer 10× were captured onto the biosensors. The first antibody was injected diluted to 10 μg/mL in Kinetic buffer 10×, followed by a second injection of the first antibody diluted to 10 μg/mL in Kinetic buffer 10× in order to saturate the signal. The second antibody was injected diluted to 10 μg/mL in Kinetic buffer 10×.
# Squares with “O” indicate substantial or direct competition between the 1st and 2nd antibody (1st antibody prevents/causes loss of binding of 2nd antibody), squares with “X” indicate potential partial competition (1st antibody causes a potential reduction but not loss of binding of 2nd antibody), squares with “N/A” indicate no competition.
Molecule,control of tumor growth [1],binding result (human Nectin-4 Mutant 6),binding result (human Nectin-4 Mutant 9),binding result (human Nectin-4 Mutant 2),"competition, 2nd mab injected: 14A5 [2]","competition, 2nd mab injected: MABT64 [2]","competition, 2nd mab injected: N41 [2]",control of tumor growth ([1]; 3 mg/kg),"competition, 2nd mab injected: 5E7 [2]"
"N41 (antibody, V domains shown) VH: QVQLKQSGPGLVQPSQSLSITCTVSGFSLTNYGVHWVRQSPGKGLEWLGVIWSGGSTDYNAAFISRLSISKDTSKSQVFFKMNSLQADDTAIYYCARELIHAMDNWGQGTSVTVSS VL: DIQMTQSPASLSVSVGETVTITCRASENIYSNLAWYQQKQGNSPQLLVFAATNLADGVPSRFSGSGSGTQYSLKINSLQSEDFGTYYCQHFWGTPTFGGGTKLEIK",no longer showed the ability to control tumor growth,binds,binds,binds,◯,◯,◯,,
"chimeric parental 5E7 antibody (antibody, V domains shown, Chimeric antibody, murine variable domains with human constant regions; also called ch5E7; CHG1-M-1N4-5E7) VH: QVQLQQPGAELVKPGASVKLSCKASGYIFTSYWMHWVKQRPGQGLEWIGEIDPSDSYTNYNQKFKGKATLTLDKSSSTTYMQLSSLTSEDSAVYYCVRGYGNYGDYWGQGTTLTVSS VL: DVVMTQAAFSNPVTLGTSASISCRSSKSLLHSNGITYLYWYLQKPGQSPQLLIYQMSNLASGVPDRFSSSGSGTDFTLRISRVEAEDVGVYYCAQNLELPWTFGGGTKLEIKR",,binds,binds,binds,,,,,
"5E7 (antibody, V domains shown) VH: QVQLQQPGAELVKPGASVKLSCKASGYIFTSYWMHWVKQRPGQGLEWIGEIDPSDSYTNYNQKFKGKATLTLDKSSSTTYMQLSSLTSEDSAVYYCVRGYGNYGDYWGQGTTLTVSSASTKGP VL: DVVMTQAAFSNPVTLGTSASISCRSSKSLLHSNGITYLYWYLQKPGQSPQLLIYQMSNLASGVPDRFSSSGSGTDFTLRISRVEAEDVGVYYCAQNLELPWTFGGGTKLEIKRTVAAP",,,,,,,,strong ability to prevent tumor growth; also recorded: able to effectively control tumor growth,◯
